These results are taken from paper PMC11294453, “Cryo-EM structure of a conjugative type IV secretion system suggests a molecular switch regulating pilus biogenesis” (The EMBO Journal, 2024).

To fix the notation:
B1: TrwI/VirB6 (natural protein)
chain: MAFELFTPLFNKIDQTTATYVTDISSRAIAAITPVVSVGLTLGFITYGWLIIRGAVEMPVAEFLNRCLRIGIIVSIALAGGLYQGEIANAITTVPDELASALLGNPTEGASAAALVDQSAQQGFDRASEAFEEAGFFSSDGLLYGLFGIIIPAGYGPAGAIGGAFLLLAKIALALLAGLGPLFILALIWQPTHRFFDQWAQQVLNYGLLIVLFAAVFGLLMQIFGSYMADLRFDGAQNVAYAIGGSVILSIVSIVLLMQLPSIASGLAGGIGLGYMWELRSMRSGAGAAMRGGRAMARGARAAPGAARGAAVGAANMAKTVATGGAGVARAAAGYFRGRKAG
notes: TrwI, the VirB6 homologue of the type IV secretion system encoded by the conjugative plasmid R388; TM region (α1 and α2) is residues 30-82; also called TrwI/VirB6TM; VirB6_(α1α2TM); source: R388 T4SS complexes expressed and purified from membranes as described previously (Mace et al, 2022)
B2: TrwG/VirB8 (natural protein)
chain: MSKKQPKPVKAEQLKSYYEESRGLERDLIGEFVKSRKTAWRVATASGLFGLLGMVCGIVGFSQPAPAPLVLRVDNATGAVDVVTTLREHESSYGEVVDTYWLNQYVLNREAYDYNTIQMNYDTTALLSAPAVQQDYYKLFDGSNARDRVLGNKARITVRVRSIQPNGRGQATVRFTTQQHNSNGTVERPQHQIATIGYTYIGAPMRSSDRLLNPLGFQVTSYRADPEILNN
notes: TrwG, the VirB8 homologue of the type IV secretion system encoded by the conjugative plasmid R388; also called TrwG/VirB8_(peri); TrwG/VirB8_(tail); source: R388 T4SS complexes expressed and purified from membranes as described previously (Mace et al, 2022)
B3: TrwH/VirB7 (natural protein, UniProt O50334 17-47, looked up)
chain: CASAPKPKQPSDFNREPVNKTVPVEIQRGAL
notes: TrwH, the VirB7 homologue of the type IV secretion system encoded by the conjugative plasmid R388; source: R388 T4SS complexes expressed and purified from membranes as described previously (Mace et al, 2022)
B4: TrwM/VirB3 (natural protein)
chain: MKPPQQQHEAFPLFKGATRLPTILGEPMIPLMAMVMGVAVIALTVSIWWWALVPPLWFIMAQITKNDDKAFRIWWLWIDTKFRNRNKGFWGASSYSPANYRKRR
notes: TrwM, the VirB3 homologue of the type IV secretion system encoded by the conjugative plasmid R388; source: R388 T4SS complexes expressed and purified from membranes as described previously (Mace et al, 2022)
B5: TrwK/VirB4 (enzyme)
chain: MGAIESRKLLASETPVGQFIPYSHHVTDTIISTKNAEYLSVWKIDGRSHQSASEADVFQWIRELNNTLRGISSANLSLWTHIVRRRVYEYPDAEFDNVFCRQLDEKYRESFTGYNLMVNDLYLTVVYRPVSDKVLSFFAKRERETPDQKKHRQESCIKALEDINRTLGQSFKRYGAELLSVYEKGGHAFSAPLEFLARLVNGEHIPMPICRDRFSDYMAVNRPMFSKWGEVGELRSLTGLRRFGMLEIREYDDATEPGQLNVLLESDYEFVLTHSFSVLSRPAAKEYLQRHQKNLIDARDVATDQIEEIDEALNQLISGHFVMGEHHCTLTVYGETVQQVRDNLAHASAAMLDVAVLPKPVDLALEAGYWAQLPANWQWRPRPAPITSLNFLSFSPFHNFMSGKPTGNPWGPAVTILKTVSGTPLYFNFHASKEEEDATDKRLLGNTMLIGQSSSGKTVLLGFLLAQAQKFKPTIVAFDKDRGMEISIRAMGGRYLPLKTGEPSGFNPFQLPPTHANLIFLKQFVKKLAAAGGEVTHRDEEEIDQAITAMMSDSIDKSLRRLSLLLQFLPNPRSDDMDARPTVHARLVKWCEGGDYGWLFDNPTDALDLSTHQIYGFDITEFLDNPEARTPVMMYLLYRTESMIDGRRFMYVFDEFWKPLQDEYFEDLAKNKQKTIRKQNGIFVFATQEPSDALESNIAKTLIQQCATYIFLANPKADYEDYTQGFKLTDSEFELVRGLGEFSRRFLIKQGDQSALAEMNLGKFRTIVDGETVERDFDDELLVLSGTPDNAEIAESIIAEVGDDPAVWLPIFLDRVKAERSDV
notes: TrwK, the VirB4 ATPase of the type IV secretion system encoded by the conjugative plasmid R388; also called TrwK/VirB4_(central); TrwK/VirB4_(outside); source: R388 T4SS complexes expressed and purified from membranes as described previously (Mace et al, 2022)
B6: TrwF/VirB9 (natural protein)
chain: LDVPSSSRYDHRIRYVTYNPADVVQVDTVLGVATHIMLEEGEQYLTHAFGIPKPMPLPGRAGIFLSSRTAELANTNLIVVTDRRSYKFRLQMRNDRNGAMYELAFRYPDTQARQTREANARAAVEAAFEQRVGAYYNLKYMMSGDKDIAPVNAWDDGRFTYFKFSANADLPSIYFVDAEGNESLVPRTTVGSSNNIIAVHKVNPKWMIRLGNRALAIFNEAYDPNGVPNDTGTASPAVRRVNKGGN
notes: TrwF, the VirB9 homologue of the type IV secretion system encoded by the conjugative plasmid R388; NTD in the I-layer, CTD in the O-layer, linker helix residues 128 to 150; also called TrwF/VirB9NTD; VirB9CTD; source: R388 T4SS complexes expressed and purified from membranes as described previously (Mace et al, 2022)
B7: TrwJ/VirB5 (natural protein, UniProt O50331 23-226, looked up)
chain: QGIPVFDGTRALDFVQQFARMKEQLDTAKDQLAEAQRMYEAVTGGRGLGDLMRNAQLREYLPDDLRTVYDSANGGGYSGISGSINDILRDERLNGSVADMRRSIEERSRTARTTDKAVGCGPTKGHSNASRRLKDEISRTQDQKAIEELQARIAGEQAAIQNETTKLQMIAQLRQAEQALISEQRRERNMPILSSGNQGMPTIQ
notes: TrwJ, the VirB5 homologue of the type IV secretion system encoded by the conjugative plasmid R388; residues Gln23-Ala33 newly built; source: R388 T4SS complexes expressed and purified from membranes as described previously (Mace et al, 2022)
B8: TrwE/VirB10 (natural protein)
chain: MFGRKKGDVIDAGAELERAEQERIEGEYGASELASERRPHTPGARTLLMVLLCVIAVVLVTLSYKAYKVRGVVEDDDAQPQQVVRQVIPGYTPRPIRPEPENVPEPPQPTTSVPAIQPAPVTQPVRPQPTGPREKTPYELARERMLRSGLTAGSGGGEDLPRPQGGDVPAGGLMGGGGGGGELAEKLQPMRLSGSSAGRLGNRDMLITQGTQLDCVLETRLVTTQPGMTTCHLTRDVYSTSGRVVLLDRGSKVVGFYQGGLRQGQARIFVQWSRIETPSGVVINLDSPGTGPLGEAGLGGWIDRHFWERFGGAIMISLIGDLGDWASRQGSRQGNNSIQFSNTANGVESAAAEALRNSINIPPTLYKNQGERVNILVARDLDFSDVYSLESIPTK
notes: TrwE, the VirB10 homologue of the type IV secretion system encoded by the conjugative plasmid R388; residues 21-69, 83-101, 135-153 and 177-395 are described in the structures; the first 20 residues are invisible; also called TrwE/VirB10NTD; VirB10NT; source: R388 T4SS complexes expressed and purified from membranes as described previously (Mace et al, 2022)

Data set [1] deals with B8. The experiment in a line: cryo-EM structure; R388 T4SS complex purified from membranes; extended IMC protomer map without symmetry, 3.83 Å, with the Stalk-Arches-IMC map at 4.33 Å. As to conditions: both partners purified.
In data set [2] the target is B5. The data set is described as above. As to conditions: both partners purified.
Data set [3] deals with the molecule itself. Put plainly: cryo-EM structure; R388 T4SS complex purified from membranes; Arches map without symmetry, 6.22 Å; secondary structures only, no side chains.
In data set [4] the target is B8. The data set is described as above. As to conditions: both partners purified.
Data set [5] concerns the target B6. Put plainly: cryo-EM structure; R388 T4SS complex purified from membranes; OMCC maps: O-layer with C14 symmetry (2.46 Å), I-layer with C16 symmetry (2.69 Å), OMCC conformations A, B and C without symmetry. To be noted: both partners purified.
Data set [6] has as its target B8. Described as above. To be noted: both partners purified.
Data set [7] concerns the molecule itself. The experiment in a line: cryo-EM structure; R388 T4SS complex purified from membranes; extended IMC protomer map without symmetry, 3.83 Å, with the Stalk-Arches-IMC map at 4.33 Å.
For data set [8], the target named is B1. Put plainly: cryo-EM structure; R388 T4SS complex purified from membranes; Stalk map with C5 symmetry applied, 2.97 Å. As to conditions: both partners purified.
Data set [9] deals with the molecule itself. The experiment in a line: cryo-EM structure; R388 T4SS complex purified from membranes; OMCC maps: O-layer with C14 symmetry (2.46 Å), I-layer with C16 symmetry (2.69 Å), OMCC conformations A, B and C without symmetry.

For B1, in data set [1], the binding result is “binds”. Take B2: the binding result in [2] and in data set [4] was “binds” throughout. The stoichiometry N – broadly, a count of units in the complex or per binding partner – in [3] stood at 24 subunits. B3: the binding result in data set [5] and in [6] was “binds” each time. Regarding B4, the binding result in [2] and in data set [1] was “binds” each time. In the case of B5, the binding result in [7] is recorded as “binds”.

Turning to B6, in data set [6], the binding result is recorded as “binds”. B7: the binding result in data set [8] was “binds”. As to B8, the binding result in data set [2] and in [9] was “binds” in each case.
